Laboratory results from patent US20250277030A1, “ANTI-NAPI2B ANTIBODIES AND METHODS OF USE” (Zymeworks BC Inc., priority 2022, published 2025).
Where a chain is given by its changes, count along the chain named.

T1: NaPi2b expressed on IGROV-1 cells (Homo sapiens, UniProt O95436)
T1 construct: IGROV-1 cells express endogenous NaPi2b at a high level; endogenous in cells; host or cells: IGROV-1
T1 sequence (O95436 1-690): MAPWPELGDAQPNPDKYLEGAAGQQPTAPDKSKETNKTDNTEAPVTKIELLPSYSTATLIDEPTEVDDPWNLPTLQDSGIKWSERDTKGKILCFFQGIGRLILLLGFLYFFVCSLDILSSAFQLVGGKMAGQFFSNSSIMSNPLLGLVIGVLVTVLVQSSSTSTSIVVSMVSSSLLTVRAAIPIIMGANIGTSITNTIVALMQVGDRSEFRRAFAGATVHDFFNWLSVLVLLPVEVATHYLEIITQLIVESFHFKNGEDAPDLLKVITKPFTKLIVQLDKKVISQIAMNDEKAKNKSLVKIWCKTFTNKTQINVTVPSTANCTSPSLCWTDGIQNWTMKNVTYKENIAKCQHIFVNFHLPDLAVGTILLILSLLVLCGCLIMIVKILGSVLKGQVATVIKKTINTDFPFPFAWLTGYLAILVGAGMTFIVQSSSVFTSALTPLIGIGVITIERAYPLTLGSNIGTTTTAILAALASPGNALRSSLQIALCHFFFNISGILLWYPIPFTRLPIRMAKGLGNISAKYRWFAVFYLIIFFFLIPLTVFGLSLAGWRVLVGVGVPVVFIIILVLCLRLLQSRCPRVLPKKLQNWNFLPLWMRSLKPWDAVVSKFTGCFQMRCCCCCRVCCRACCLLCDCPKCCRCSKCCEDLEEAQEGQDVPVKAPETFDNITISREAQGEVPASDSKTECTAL

B1: v29451: humanized anti-NaPi2b IgG1/kappa antibody H2L3; VH SEQ ID NO:25, VL SEQ ID NO:30 (antibody, V domains shown)
VH: QVQLVQSGAEVKKPGASVKVSCKASGFTFTSYNVHWVRQAPGQGLEWIAAISPGNGDLSYAQKFQGRVTMTVDTSTSTVYMELSSLRSEDTAVYYCARGRTGMGAVDYWGQGTLVTVSS
VL: DVQMTQSPSSLSASVGDRVTITCRASQDVYSYLNWYQQKPGKAVKLLIYYTSRLQSGVPSRFSGSGSGTDYTLTISSLQPEDIATYYCQQYNIFPWTFGQGTKLEIK
modifications: v29451, v29455, v29459 VH (H2); v29449, v29450, v29451, v29452 VL (L3)
B2: v29458: humanized anti-NaPi2b IgG1/kappa antibody H3L1; VH SEQ ID NO:26, VL SEQ ID NO:28 (antibody, V domains shown)
VH: B1 VH with V20M, V68A, M70L, V79A
VL: B1 VL with V2I, V44P, Y71F, I83F
modifications: v29450, v29454, v29458 VH (H3); v29457, v29458, v29459, v29460 VL (L1)
B3: v29457: humanized anti-NaPi2b IgG1/kappa antibody H4L1; VH SEQ ID NO:27, VL SEQ ID NO:28 (antibody, V domains shown)
VH: B1 VH with V20M, V68A, M70L, T74R, V79A
VL: B1 VL with V2I, V44P, Y71F, I83F
modifications: v29449, v29453, v29457 VH (H4); v29457, v29458, v29459, v29460 VL (L1)
B4: v29455: humanized anti-NaPi2b IgG1/kappa antibody H2L2; VH SEQ ID NO:25, VL SEQ ID NO:29 (antibody, V domains shown)
VH: B1 VH
VL: B1 VL with I83F
modifications: v29451, v29455, v29459 VH (H2); v29453, v29454, v29455, v29456 VL (L2)
B5: v29454: humanized anti-NaPi2b IgG1/kappa antibody H3L2; VH SEQ ID NO:26, VL SEQ ID NO:29 (antibody, V domains shown)
VH: B1 VH with V20M, V68A, M70L, V79A
VL: B1 VL with I83F
modifications: v29450, v29454, v29458 VH (H3); v29453, v29454, v29455, v29456 VL (L2)
B6: v29453: humanized anti-NaPi2b IgG1/kappa antibody H4L2; VH SEQ ID NO:27, VL SEQ ID NO:29 (antibody, V domains shown)
VH: B1 VH with V20M, V68A, M70L, T74R, V79A
VL: B1 VL with I83F
modifications: v29449, v29453, v29457 VH (H4); v29453, v29454, v29455, v29456 VL (L2)

Test system: not listed separately
Experiment: Thermal stability by differential scanning calorimetry (DSC)
Type: physicochemical
Settings: 0.4 mg/mL in PBS, scan 20° C. to 100° C. at 60° C./hr
Protocol: The thermal stability of the humanized antibody variants was assessed by differential scanning calorimetry (DSC) as described below.
400 μL of purified samples primarily at concentrations of 0.4 mg/mL in PBS were used for DSC analysis with a VP-Capillary DSC (Malvern Panalytical Inc., Westborough, MA). At the start of each DSC run, 5 buffer blank injections were performed to stabilize the baseline, and a buffer injection was placed before each sample injection for referencing. Each sample was scanned from 20° C. to 100° C. at a 60° C./hr rate, with low feedback, 8 sec filter, 3 min pre-scan thermostat, and 70 psi nitrogen pressure. The resulting thermograms were referenced and analyzed using Origin 7 software (OriginLab Corporation, Northampton, MA) to determine melting temperature (Tm) as an indicator of thermal stability.

Molecule	Fab Tm [°C]
B1	83.0
B2	81.6
B3	80.5
B4	81.5
B5	79.7
B6	78.9

Target: T1, NaPi2b expressed on IGROV-1 cells
Experiment: Cellular binding of bivalent antibodies to IGROV-1 cells by flow cytometry (Example 13)
Settings: IGROV-1, 24 hours at 4° C.; NB = no cellular binding
Protocol: IGROV-1 cells express endogenous NaPi2b at a high level.
Briefly, cells were seeded at 50,000 cells/well in conical-bottom 96-well plates and treated with test antibody for 24 hours at 4° C. to prevent internalization. Palivizumab (anti-RSV antibody, v22277) was included as a negative control. […] Following incubation, cells were washed and stained with anti-Human IgG Fc AF647 conjugate (Jackson Immuno Research Labs, West Grove, PA; Cat. No. 109-605-098) at 4° C. for 30 min. Following incubation and washing, fluorescence was detected by flow cytometry on a BD LSRFortessa™ Cell Analyzer (BD Biosciences, Franklin Lake, NJ) with 1,000 minimum events collected per well. The AF647/APC-A GeoMean (fluorescence signal geometric mean, proportional to anti-Human AF647 binding) was calculated for the live cell population using FlowJo™ Version 10.8.1 (BD Biosciences, Franklin Lake, NJ) and plotted for each test antibody using GraphPad Prism Version 9 (GraphPad Software, San Diego, CA).

Molecule	Bmax (MFI)	Curve Hill Slope (h)
B1	46,170 MFI	1.1
B2	40,793 MFI	1.1
B3	44,539 MFI	1.0
B4	41,917 MFI	1.1
B5	42,278 MFI	1.0
B6	44,480 MFI	1.2
